What was measured:
[1] = system: clam E3-C/cyclosome complex, activated, partially purified
[2] = system: non-specific ubiquitin-protein ligase (E3) from clam oocyte Fraction 1A

recombinant human Ubc4 homolog, UbcH5, sequence (chain, as listed by the source): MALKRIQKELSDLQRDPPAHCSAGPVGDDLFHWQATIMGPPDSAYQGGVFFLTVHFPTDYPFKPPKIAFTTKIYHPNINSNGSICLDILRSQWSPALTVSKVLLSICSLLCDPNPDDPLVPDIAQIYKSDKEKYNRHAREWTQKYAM

recombinant human Ubc4 homolog, UbcH5
stimulation of cyclin-ubiquitin ligation [1]: UbcH5 caused some stimulation of cyclin-ubiquitin ligation by the clam E3-C/cyclosome complex, but the amount of conjugates formed and their size ... were much lower than those obtained with the recombinant clam protein | ligation of 125I-ubiquitin to high molecular weight conjugates [2]: UbcH5 strongly stimulated the ligation of 125I-ubiquitin to high molecular weight conjugates in the presence of non-specific E3 from clam oocytes
